This experiment concerns the target T1, hSEMA4D ECD-His (His-tagged human SEMA4D protein extracellular domain, Met22-Arg734) (human, UniProt Q92854 22-734).
T1 construct: Expressed in CHO-S cells, purified on Ni column; also called protein immunogen; immunogen A; not shown: His tag of the pCP vector
T1 sequence: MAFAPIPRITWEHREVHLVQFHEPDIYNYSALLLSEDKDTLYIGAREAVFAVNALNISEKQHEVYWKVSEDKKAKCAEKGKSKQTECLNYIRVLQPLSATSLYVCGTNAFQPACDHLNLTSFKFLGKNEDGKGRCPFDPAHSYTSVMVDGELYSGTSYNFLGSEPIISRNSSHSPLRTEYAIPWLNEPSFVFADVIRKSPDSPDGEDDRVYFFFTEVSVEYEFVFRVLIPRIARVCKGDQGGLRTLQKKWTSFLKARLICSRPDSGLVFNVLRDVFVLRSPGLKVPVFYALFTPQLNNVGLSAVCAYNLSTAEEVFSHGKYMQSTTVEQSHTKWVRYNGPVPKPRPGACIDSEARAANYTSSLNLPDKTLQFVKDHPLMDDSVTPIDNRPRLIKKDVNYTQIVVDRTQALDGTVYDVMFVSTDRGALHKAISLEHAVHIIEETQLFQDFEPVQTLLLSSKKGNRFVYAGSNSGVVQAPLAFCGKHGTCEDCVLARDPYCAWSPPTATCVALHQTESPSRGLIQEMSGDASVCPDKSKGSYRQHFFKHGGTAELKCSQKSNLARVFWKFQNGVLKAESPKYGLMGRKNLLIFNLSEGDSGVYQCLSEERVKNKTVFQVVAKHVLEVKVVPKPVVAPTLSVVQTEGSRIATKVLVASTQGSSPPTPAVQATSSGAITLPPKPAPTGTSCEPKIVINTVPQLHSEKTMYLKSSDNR
Put plainly: SPR (Biacore), antibody captured on anti-human Fc CM5 chip, hSEMA4D ECD-His 100 nM as analyte, 1:1 fit. The procedure: The anti-human Fc IgG (purchased from Geneway) was coupled and immobilized on the surface of the CM5 chip (purchased from GE) by the amino coupling method, and FC1 was used as the reference channel. The coupling and immobilization process was as follows: the freshly prepared mixture of 50 mM N-hydroxysuccinimide (NHS) and 200 mM 1-(3-dimethylaminopropyl)-3-ethylcarbodiimide hydrochloride (EDC) with a molar ratio of […] was used to activate the chip. Then 10-50 μg/mL anti-human Fc IgG diluted in 10 mM sodium acetate buffer (pH 5.0) was injected. The remaining activated sites were blocked with 1M ethanolamine. Then, buffer containing HBS-EP was used to dilute the 2D5-b1-3D9 antibody prepared to 5 ug/ml and the antibodies were captured on the chip at a flow rate of 10 ul/min to obtain a response value of about 100-300RU. Then, the purified hSEMA4D ECD-His was diluted to 100 nM and let flow across the chip surface at a flow rate of 30 μL/min. At the end of each cycle, the chip surface was regenerated with 10 mM Glycine at pH 1.5. The kinetic rate constant needed to be subtracted from the blank control, and the data was fitted with the global fit analysis method 1:1 combined with the model (see the Biacore operation manual for operation). The dissociation equilibrium rate constant (KD) was calculated according to the following formula: KD=kd/ka, wherein Kd is the dissociation constant and Ka is the binding constant.

Our source for the Kd, koff and kon values is patent US20220073608A1 (JIANGSU HUAIYU PHARMACEUTICAL, published 2022).

B1: 2D5-b1 (antibody, V domains shown)
VH: QVTLRESGPALVKPTQTLTLTCTFSGFSLTTTGVAVTWIRQPPGKALEWLALIDWDDDKYYSTSLKTRLTISKDTSKNQVVLTMTNMDPVDTATYYCARIASGDSGGYFADWGQGTLVTVSS
VL: SYELTQPPSVSVSPGQTASITCSGDKLDDKYVYWYQQKPGQSPVLVIYRDNKRPSGIPERFSGSNSGNTATLTISGTQAMDEADYYCQAWESSSDQYVFGTGTKVTVL
notes: Framework back-mutated variant of 2D5; the parent 2D5 was human IgG4 (S228P)/lambda; captured by anti-human Fc in the SPR assay
The term Kd denotes the concentration at which binding is half-saturated. Lower therefore signals tighter binding. As usually defined, the koff is a measure of how fast the partners let go of each other. What is called kon is a measure of how fast the partners come together. A higher kon goes with fast association. Molecule B1 displayed a Kd of 2.01 nM, a koff of 0.00103 s⁻¹ and an association rate constant (kon) of 511000 M⁻¹ s⁻¹.

B2: 2D5-b1-3D9 (antibody, human IgG4, V domains shown)
VH: QVTLRESGPALVKPTQTLTLTCTFSGFSLTTTGVAVTWIRQPPGKALEWLALIDWDDDKYYSTSLKTRLTISKDTSKNQVVLTMTNMDPVDTATYYCARIASGDSGGYFADWGQGTLVTVSS
VL: SYELTQPPSVSVSPGQTASITCSGDKLDDKYVYWYQQKPGQSPVLVIYMDNKRKSGIPERFSGSNSGNTATLTISGTQAMDEADYYCQAWESSSDQYVFGTGTKVTVL
notes: also called 2D5-b1-3D9 antibody
With B2, binding was put at a Kd of 0.184 nM, the koff turned out to be 0.000107 s⁻¹ and the kon is 583000 M⁻¹ s⁻¹.
